Patent US20100291097A1
Values belong to the binder of their own block, whether it stands above or below them.

Tests used:
[1] = target: Peptide 25 of the Aβ1-42 overlapping peptide library; test: peptide library ELISA, Ab 10 µg/ml
[2] = target: Peptide 29 of the Aβ1-42 overlapping peptide library; test: peptide library ELISA, Ab 10 µg/ml
[3] = target: Peptide 12 of the Aβ1-42 overlapping peptide library; test: peptide library ELISA, Ab 10 µg/ml
[4] = target: Peptide 11 of the Aβ1-42 overlapping peptide library; test: peptide library ELISA, Ab 10 µg/ml
[5] = target: Peptide 4 of the Aβ1-42 overlapping peptide library; test: peptide library ELISA, Ab 10 µg/ml
[6] = target: Peptide 33 of the Aβ1-42 overlapping peptide library; test: peptide library ELISA, Ab 10 µg/ml
[7] = target: Peptide 21 of the Aβ1-42 overlapping peptide library; test: peptide library ELISA, Ab 10 µg/ml
[8] = target: Peptide 1 of the Aβ1-42 overlapping peptide library; test: peptide library ELISA, Ab 10 µg/ml
[9] = target: Peptide 7 of the Aβ1-42 overlapping peptide library; test: peptide library ELISA, Ab 10 µg/ml
[10] = target: Peptide 32 of the Aβ1-42 overlapping peptide library; test: peptide library ELISA, Ab 10 µg/ml
[11] = target: Peptide 9 of the Aβ1-42 overlapping peptide library; test: peptide library ELISA, Ab 10 µg/ml
[12] = target: Peptide 27 of the Aβ1-42 overlapping peptide library; test: peptide library ELISA, Ab 10 µg/ml
[13] = target: Peptide 28 of the Aβ1-42 overlapping peptide library; test: peptide library ELISA, Ab 10 µg/ml
[14] = target: Peptide 30 of the Aβ1-42 overlapping peptide library; test: peptide library ELISA, Ab 10 µg/ml
[15] = target: Peptide 17 of the Aβ1-42 overlapping peptide library; test: peptide library ELISA, Ab 10 µg/ml
[16] = target: Peptide 24 of the Aβ1-42 overlapping peptide library; test: peptide library ELISA, Ab 10 µg/ml
[17] = target: Peptide 10 of the Aβ1-42 overlapping peptide library; test: peptide library ELISA, Ab 10 µg/ml
[18] = target: Peptide 3 of the Aβ1-42 overlapping peptide library; test: peptide library ELISA, Ab 10 µg/ml
[19] = target: Peptide 5 of the Aβ1-42 overlapping peptide library; test: peptide library ELISA, Ab 10 µg/ml
[20] = target: Peptide 23 of the Aβ1-42 overlapping peptide library; test: peptide library ELISA, Ab 10 µg/ml
[21] = target: Peptide 2 of the Aβ1-42 overlapping peptide library; test: peptide library ELISA, Ab 10 µg/ml
[22] = target: Peptide 13 of the Aβ1-42 overlapping peptide library; test: peptide library ELISA, Ab 10 µg/ml
[23] = target: Peptide 20 of the Aβ1-42 overlapping peptide library; test: peptide library ELISA, Ab 10 µg/ml
[24] = target: Peptide 14 of the Aβ1-42 overlapping peptide library; test: peptide library ELISA, Ab 10 µg/ml
[25] = target: Peptide 26 of the Aβ1-42 overlapping peptide library; test: peptide library ELISA, Ab 10 µg/ml
[26] = target: Peptide 22 of the Aβ1-42 overlapping peptide library; test: peptide library ELISA, Ab 10 µg/ml
[27] = target: Peptide 15 of the Aβ1-42 overlapping peptide library; test: peptide library ELISA, Ab 10 µg/ml
[28] = target: Peptide 8 of the Aβ1-42 overlapping peptide library; test: peptide library ELISA, Ab 10 µg/ml
[29] = target: Peptide 16 of the Aβ1-42 overlapping peptide library; test: peptide library ELISA, Ab 10 µg/ml
[30] = target: Peptide 18 of the Aβ1-42 overlapping peptide library; test: peptide library ELISA, Ab 10 µg/ml
[31] = target: Peptide 31 of the Aβ1-42 overlapping peptide library; test: peptide library ELISA, Ab 10 µg/ml
[32] = target: Peptide 6 of the Aβ1-42 overlapping peptide library; test: peptide library ELISA, Ab 10 µg/ml
[33] = target: Peptide 19 of the Aβ1-42 overlapping peptide library; test: peptide library ELISA, Ab 10 µg/ml
Aβ1-42 peptide = test: cell-based or functional assay
[34] = target: Aβ1-28 peptide, biotinylated (Anaspec); test: ELISA, biotin-peptide on streptavidin, Ab 10 µg/ml; mean of 2, background subtracted; details: remark: other sources report otherwise
Chain of Aβ1-28 peptide, biotinylated (Anaspec) (chain, as listed by the source): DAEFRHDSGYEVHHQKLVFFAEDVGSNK

Chain of Aβ1-42 peptide (peptide, as listed by the source): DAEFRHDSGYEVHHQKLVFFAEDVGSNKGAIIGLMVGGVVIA

O.D. [1]: 0.23 O.D. | O.D. [2]: 0.27 O.D. | O.D. [3]: 0.34 O.D. | O.D. [4]: 0.23 O.D. | O.D. [5]: 0.36 O.D. | O.D. [6]: 0.26 O.D. | O.D. [7]: 0.21 O.D. | O.D. [8]: 0.32 O.D. | O.D. [9]: 0.3 O.D. | O.D. [10]: 0.31 O.D. | O.D. [11]: 0.19 O.D. | O.D. [12]: 0.26 O.D. | O.D. [13]: 0.26 O.D. | O.D. [14]: 0.29 O.D. | O.D. [15]: 0.31 O.D. | O.D. [16]: 0.18 O.D. | O.D. [17]: 0.2 O.D. | O.D. [18]: 0.37 O.D. | O.D. [19]: 0.32 O.D. | O.D. [20]: 0.2 O.D. | O.D. [21]: 0.26 O.D. | O.D. [22]: 0.23 O.D. | O.D. [23]: 0.22 O.D. | O.D. [24]: 0.3 O.D. | O.D. [25]: 0.25 O.D. | O.D. [26]: 0.21 O.D. | O.D. [27]: 0.32 O.D. | O.D. [28]: 0.21 O.D. | O.D. [29]: 0.34 O.D. | O.D. [30]: 0.3 O.D. | O.D. [31]: 0.31 O.D. | O.D. [32]: 0.34 O.D. | O.D. [33]: 0.3 O.D. | disaggregation of pre-aggregated Aβ1-42, thioflavin T assay, molar ratio 1:10 (Aβ1-42 peptide): 20% | disaggregation of pre-aggregated Aβ1-42, thioflavin T assay, molar ratio 1:100 (Aβ1-42 peptide): 12% | inhibition of Aβ1-42 aggregation, thioflavin T assay, antibody to Aβ1-42 molar ratio 1:10 (Aβ1-42 peptide): 51% | inhibition of Aβ1-42 aggregation, thioflavin T assay, antibody to Aβ1-42 molar ratio 1:100 (Aβ1-42 peptide): 26%
B1: ACI-24-Ab-3 monoclonal antibody (antibody, IgG1, V domains shown)
VH: QVQLQQSGAELARPGASVKLSCKASGYTFTSYGIRWVKQRTGQGLEWIGEICPRSGNTYYNEKFKGKATVTADKSSSTAYMELRSLTSEDSAVYFCARSIYYGRPYYFDYWGQGTTLTVSS
VL: DIVMTQSQLFMSTSVGDRVSVTCKASQNVATNVAWYQQKPGQSPKALIYSASYRYSGVPDRFTGSGSGTDFTLTISNVQSEDLAEYFCQQYNSYPLTFGAGTKLELK

O.D. [34]: 0.53 O.D.
B2: ACI-11-Ab-9 monoclonal antibody (antibody, V domains shown)
VL: QAVVTQESALTTSPGGTVILTCRSSTGAVTTSNYANWVQEKPDHLFTGLIGGTSNRAPGVPVRFSGSLIGDKAALTITGAQTEDDAMYFCALWYSTHYVFGGGTKVTVL
VH: QVQLQQSDAELVKPGASVKISCKVSGYTFTDHTIHWMKQRPEQGLEWIGYIYPRDGSTKYNEKFKGKATLTADKSSSTAYMQLNSLTSEDSAVYFCARDYGYAFDYWGQGTTLTVSS
modifications: here or on the partner: biotinylated (position not given)
